Assay: yeast display, Sf9 membrane polyspecificity reagent, FACS + sequencing; frameworks hold sequencing errors
Procedure, shortened: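 Galactose induction of a Saccharomyces cerevisiae BJ5465 synthetic nanobody display library ran 36–48 hours. The cells were then stained for 1 hour at 4 °C with 10% biotinylated, detergent-solubilized Sf9 membrane reagent, pulled down on streptavidin microbeads and FACS-sorted into low and high (top ~1%) gates on expression and reagent-binding fluorescence. Labels for polyreactivity follow the gate of origin.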

QVQLVESGGGLVQAGGSLRLSCAASGRIFRDYAMGWYRLAPGKERELVAAITLSGTTTYYADSVKGRFTISRDNAKNTVYVQMNSLKPEDTAVYYCNAPRYRYRPHEGDYWGQGTQVTVSS
polyreactivity (PSR sort gate): low polyreactivity

QVQLVESGGGLVQAGGSLRLSCAASGRIFRDYAMGWYRQAPGKERELVAAITRSGDTTYYADSVKGRFTISRDNAKNTVYLQMNSLKPEDTAVYYCAARYVSRYYVYRGFEYWGQGTQVTVSS
polyreactivity (PSR sort gate): high polyreactivity

QVQLVESGGGLVQAGGSLRLSCAASGRIFRFYAMGWYRKAPGKERELVAAISSSGVRTYYADSVKGRFTISRDNAKNTVYLQMNSLKPEDTAVYYCAKRTVWWSNWHYYPPTYNYWGQGTQVTVSS
polyreactivity (PSR sort gate): high polyreactivity

QVQLVESGGGLVQAGGSLRLSCAASGRIFRFYAMGWYRPAPGKERELVAAISWNGGRTYYAVSVKGRFTISRDNAKNTVYLQMNSLKPEVTAVYYCATEFYYHWYSPFDYWGQGTQVTVSS
polyreactivity (PSR sort gate): high polyreactivity

QVQLVESGGGLVQAGGSLRLSCAASGRIFRGNGMGWYRQAPGKERELVAAINYSGASTYYADSVKGRFTISRDNAKNTVYLQMNSLKPEDTAVYYCARAWFYRGGEGWLESYIVSGDYWGQGTQVTVSS
polyreactivity (PSR sort gate): low polyreactivity

QVQLVESGGGLVQAGGSLRLSCAASGRIFRGYAMGWSRQAPGKERELVAAITSRGGSTYADSVKGRFTISRDNAKNTVYLQMNSLKPEDTAVYYCNAKEGSRYRKYDYWGQGTQVTVSS
polyreactivity (PSR sort gate): low polyreactivity

QVQLVESGGGLVQAGGSLRLSCAASGRIFRGYAMGWYRPAPGKERELVAAIDTDTGITYYADSVKGRFTISRVNAKNTVNLQMNSLKPEDTAVYYCAAETYYAVSTGYYFDYWGQGTQVTVSS
polyreactivity (PSR sort gate): high polyreactivity

QVQLVESGGGLVQAGGSLRLSCAASGRIFRGYAMGWYRQAPGKERELVAAISASGGSTYYADSVKGRFTISRDNAKNTVYLQMNSLKPEDTAVYYCATTIFYTYYGLYDYWGQGTQVTVSS
polyreactivity (PSR sort gate): high polyreactivity

QVQLVESGGGLVQAGGSLRLSCAASGRIFRGYAMGWYRQAPGKERELVAAITSRGGSTYADSVKGRFTISRDNAKNTVYLQMNSLKPEDTAVYYCNAGYRAYSSKLVFRGYPRYDYWGQGTQVTVSS
polyreactivity (PSR sort gate): low polyreactivity

QVQLVESGGGLVQAGGSLRLSCAASGRIFRGYTMGWYRQAPGKERELVAAISRSTGSTNYADSVKGRFTISRDNAKNTVYLQMNSLKPEDTAVYYCAATVSPSYDYWGQGTQVTVSS
polyreactivity (PSR sort gate): high polyreactivity

QVQLVESGGGLVQAGGSLRLSCAASGRIFRINAMGWYRQAPGKEMELVASSSRRGGNTYYADSVKGRFTISRDNAKNTVYLQMNSLKPEDTAVYYCAADTNQERTFDYWGQGTQVTVSS
polyreactivity (PSR sort gate): low polyreactivity

QVQLVESGGGLVQAGGSLRLSCAASGRIFRINAMGWYRQAPGKERELVASISRRGGNTYYADSVKGRFTISRDNAKNTVYLQMNSLKPEDTAVYYCAADTNLERTFDYWGQGTQVTVSS
polyreactivity (PSR sort gate): low polyreactivity

QVQLVESGGGLVQAGGSLRLSCAASGRIFRINAMGWYRQAPGKERELVASISRRGGNTYYADSVKGRFTISRDNAKNTVYLQMNSLKPEDTAVYYCAADTNQERTFDYWGQGTQVTVSS
polyreactivity (PSR sort gate): low polyreactivity

QVQLVESGGGLVQAGGSLRLSCAASGRIFRIYAMGWYRQAPGKERELVAAISWSGGRTYYADSVKGRFTISRDNAKNTVYLQMNSLIREDTAVYYCNADSYSRRGFEYDYWGQGTQVTVSS
polyreactivity (PSR sort gate): high polyreactivity

QVQLVESGGGLVQAGGSLRLSCAASGRIFRIYAMGWYRQAPGKERELVARITYSGGSTYYADSVKGRFTISRDNAKNTVYLQMNSLKPEDTAVYYCNAYFIYEGGWYYKAQYDYWGQGTQVTVSS
polyreactivity (PSR sort gate): low polyreactivity

QVQLVESGGGLVQAGGSLRLSCAASGRIFRIYTMGWYRQAPGKERELVAAITKSGGSTSYADSVKGRFTISRDNAKNTVYLQMNSLKPEDTAVYYCNAKGWSRPPGYDYWGQGTQLTVSS
polyreactivity (PSR sort gate): high polyreactivity

QVQLVESGGGLVQAGGSLRLSCAASGRIFRKNAMGWYRQAPGKERELVAAITSSGNTYYADSVKGRFTISRDNAKNTVYFQMNSLKPEDTAVYYCAARLKWLNRYGYDYWGQGTQVTVSS
polyreactivity (PSR sort gate): low polyreactivity

QVQLVESGGGLVQAGGSLRLSCAASGRIFRKYAMGWYRQAPGKERELVAAISGSGGSTYYADSVKGRFTISRDNAKNTVYLQMNSLKPEDTAVYYCAASAGRYSSTLGYYWGQGTQVTVSS
polyreactivity (PSR sort gate): high polyreactivity

QVQLVESGGGLVQAGGSLRLSCAASGRIFRKYTKGWYRQAPGKERELVAAITGTGGSTYYADSVKGRFTISRDNAKNTVYLQMNSLKPEDTAVYYCAADYSARYGFWGLGTQVTVSS
polyreactivity (PSR sort gate): high polyreactivity

QVQLVESGGGLVQAGGSLRLSCAASGRIFRKYTMGWYRQAPGKERELVAAISRNGGDTYYADSVKGRFTISRDNAKNTVYLQMHSLKPEDPAVYYCNARTPPDSTHFAYWGQGTQVTVSS
polyreactivity (PSR sort gate): low polyreactivity

QVQLVESGGGLVQAGGSLRLSCAASGRIFRLYAMGWYRQAPGKERELVATITDVGSTYYADSVKGRFTISRDNAKNTVYLQMNSLKPEDTAVYYCAAESYYTSYWKYYYWGQGTQVTVSS
polyreactivity (PSR sort gate): high polyreactivity

QVQLVESGGGLVQAGGSLRLSCAASGRIFRPYAMGWYRQAPGKERELVAGITSSGGSTYYADSVEGRFTISRDNAKNTVYLQMNSLKPEDTAVYYCAAVHGLFRPLHYYWGQGTQVTVSS
polyreactivity (PSR sort gate): low polyreactivity

QVQLVESGGGLVQAGGSLRLSCAASGRIFRPYAMGWYRQAPGKERELVAGITSSGGSTYYADSVKGRYTISRDNAKNTVYLQMNSLKPEDTAVYYCAAVHGLFRPLHYYWGQGTQVTVSS
polyreactivity (PSR sort gate): low polyreactivity

QVQLVESGGGLVQAGGSLRLSCAASGRIFRPYAMGWYRQAPGKERELVASINYSGGSTYADSVKGRFTISRDNAKNTVYLQMNSLKPEDTAVYYCNVYRDGFRYTAWYTGQTFDYWGQGTQVTVSS
polyreactivity (PSR sort gate): low polyreactivity

QVQLVESGGGLVQAGGSLRLSCAASGRIFRQNAMGWYRQAPGKERELVAAISRSGGSTYYADSVKGRFTISRDNAKNTVYLQMNSLKPEDTAVYYCAADVHTPALYTYAAGDYWGQGTQVTVSS
polyreactivity (PSR sort gate): low polyreactivity

QVQLVESGGGLVQAGGSLRLSCAASGRIFRRNVMGWYRQAPGKEREMLAAIRGTGSTTYADSVKGRFTISRDNEKNTVYLQMNSLKPEDTAVYYCAAVQQGNHGFRYYYWGQGTQVTVSS
polyreactivity (PSR sort gate): high polyreactivity

QVQLVESGGGLVQAGGSLRLSCAASGRIFRRYALGWYRQAPGKERELGAAITRSGGSTYYADSVKGRFTISRDNAKNTVYLQMNSLNPEDTAVYYCYAPSSLGTDYDYWGQGTQVTVSS
polyreactivity (PSR sort gate): high polyreactivity

QVQLVESGGGLVQAGGSLRLSCAASGRIFRRYAMGWYRQAPGKEREFVAAISYGGGSTYYADSVKGRFTISRDNAKYTVSLQMNSLTPEDTAVYYCNADVPKSLLLYYPWGYGYWGQGTQVTVSS
polyreactivity (PSR sort gate): low polyreactivity

QVQLVESGGGLVQAGGSLRLSCAASGRIFRRYAMGWYRQAPGKERELVAAISSGGSTYYADSVKGRFTISRDNEKNTVYLQLNSLKPEDSAVYYCNAKVGAYLNYGYWGQGTQVTVSS
polyreactivity (PSR sort gate): low polyreactivity

QVQLVESGGGLVQAGGSLRLSCAASGRIFRRYAMGWYRQAPGKERELVAAISTSGGSTYYADSVKGRFTISRDNAKNTVYLQMNSLKPEDTAVYYCNVYKPPTRGGVLQYGYWGQGTQVTVSS
polyreactivity (PSR sort gate): low polyreactivity

QVQLVESGGGLVQAGGSLRLSCAASGRIFRRYAMGWYRQAPGKERELVAVISRGGSTHYADSVKGRFTISRDNAKNTVYLQMNSLKPEDTAVYYCNAVVSVYTKDLDYWGQGTQVTVSS
polyreactivity (PSR sort gate): high polyreactivity

From the nanobody polyreactivity screen of Harvey et al. (2022)
